Substrate: O=[N+]([O-])O
Experiment: fluorescence response (donor quenching) of sensor in yeast, plate reader
Format: cell-based, Arabidopsis thaliana
Conditions: 50 mM MES pH 5.5, monophasic low-affinity response, excitation 428 nm

B1: NiTrac1 (CHL1/NRT1.1/NPF6.3 fusion) (Arabidopsis thaliana; T101A) (protein)
chain: MSLPETKSDDILLDAWDFQGRPADRSKTGGWASAAMILCIEAVERLTTLGIGVNLVTYLTGTMHLGNATAANTVTNFLGTSFMLCLLGGFIADTFLGRYLAIAIFAAIQATGVSILTLSTIIPGLRPPRCNPTTSSHCEQASGIQLTVLYLALYLTALGTGGVKASVSGFGSDQFDETEPKERSKMTYFFNRFFFCINVGSLLAVTVLVYVQDDVGRKWGYGICAFAIVLALSVFLAGTNRYRFKKLIGSPMTQVAAVIVAAWRNRKLELPADPSYLYDVDDIIAAEGSMKGKQKLPHTEQFRSLDKAAIRDQEAGVTSNVFNKWTLSTLTDVEEVKQIVRMLPIWATCILFWTVHAQLTTLSVAQSETLDRSIGSFEIPPASMAVFYVGGLLLTTAVYDRVAIRLCKKLFNYPHGLRPLQRIGLGLFFGSMAMAVAALVELKRLRTAHAHGPTVKTLPLGFYLLIPQYLIVGIGEALIYTGQLDFFLRECPKGMKGMSTGLLLSTLALGFFFSSVLVTIVEKFTGKAHPWIADDLNKGRLYNFYWLVAVLVALNFLIFLVFSKWYVYKEKRLAEVGIELDDEPSIPMGH
notes: full-length ORF between N-terminal Aphrodite t9 (yellow FP) and C-terminal mCerulean (pDRFlip30); expressed in yeast BJ5465; intact cells
Km: 3.5 ± 3.7 mM

Reference: PMC3950950, “Fluorescent sensors for activity and regulation of the nitrate transceptor CHL1/NRT1.1 and oligopeptide transporters” (eLife, 2014)
